Results on 22 sequences are retold here after the DeepSol protein solubility set.

The data set in a line: soluble on expression in E. coli; label from the status in PepcDB or PDB records.
Consider “YNIYNNPKEANNRKDTVLYLMHKHNRINDKQYADAKKIDLKANLVERTKKERQVTGNEKNPEYDSYVNFVQSELMNNKYFKDKNLGSVLQSG”, for which the “soluble on expression in E. coli” value is on record as “not soluble”. For the sequence “MSLSALLNYKLEGSGETVVLIHGLFGSLDNLGLLARDLKNDHQVLSLDLRNHGLSFHSDEHNYALMAQDVNQLLEHLNLTSVVVIGHSMGGKVAMKLADIAAEKVRQLVVLDMSPVAYSQRRHDNVFAGLEAVLVQKPTSRSEVMAILAQHIEQEGVRQFLGKSLMSEQNVMTWRFNVAALKAHYAEILGWDIIAKCRIPTLFIKGADSDYLTTQHQPMVQAQFSQAKAHVIANTGHWLHAEKPAEVIRAIRKFIDVPVEGHHHHHH”, the “soluble on expression in E. coli” value was “soluble”. Turning to “MAHHHHHHMSVEEVQNAAAMADEEIPTLEAAEVPQNAKQSKRYAKAMAKMGLKPEPNITKVTIRKVGSLSFAMVQPEVYRFPGTNTFVIFGEAQLEDTSALAQEAAARAAVSGAASASSDAAASVPAAEEDDDEEVDAGDLDEKEINVVMSQANVSRSKAIKALKNNNGDIVNTIMELTM”, the “soluble on expression in E. coli” value was “soluble”. For “MTGQAAGPAAGPAAGQATKHAGGRRPGETRTREAILTAARVCFAERGFDATSLRRIAETAGVDQSLVHHFYGTKENLFLQALELPGKIEEAITAAAQGGLDGIGERVVRAHLSVWDDVSSRPALMTMVRSAAIHRAAAARLRETATGILARALGGVITGEDAMLRTSMVATQLVGLAMMRYVAHLEPLASADTDTVARHYGRAVQAIVTDRD”, the “soluble on expression in E. coli” value is listed as “soluble”.

With “MSLSSFEGKVAVITGAGSGIGRALALNLSEKRAKLALSDVDTDGLAKTVRLAQALGAQVKSDRLDVAEREAVLAHADAVVAHFGTVHQVYNNAGIAYNGNVDKSEFKDIERIIDVDFWGVVNGTKAFLPHVIASGDGHIVNISSLFGLIAVPGQSAYNAAKFAVRGFTEALRQEMLVARHPVKVTCVHPGGIKTAVARNATVADGEDQQTFAEFFDRRLALHSPEMAAKTIVNGVAKGQARVVVGLEAKAVDVLARIMGSSYQREGHHHHHH”, the “soluble on expression in E. coli” value was “not soluble”.

“MGSDKIHHHHHHMMATIKDIAKEVGCSISTVSRVLNNDPTLSVGDETRSRIFEVAEEIGYRKKTLKTLVKNIAFLYWLTDNEELEDVYFQTMRVEIEKKARENNIELTTYKLEGGIEKIPLDIDGFIAVGSFMNRELEYLRELTPHGVFIDSTPDPAHYDSVRPDLAQITRQAVEVLVEQGHEKIGFIGGTYHNLDTDAEEMDGRERAFRQTMEERDLLREDFIFCRRGFSVDNGHYLMNQAVEQLGEELPTAFYVAADPIAVGCLQVLNEQQIEIPKRVSLISVNDTSISKYVSPPLTTFHIDLEEICQNAIQLLLERVLKKRNIVKTVYIGAELITRKSTL”: the “soluble on expression in E. coli” value is given as “not soluble”. With “MSLTEAPRVRLAEAEVFERPVEFRFPFRFGSARVATAPQAFVRVRVEDARGRSAIGWSAEMMMPKWFDKNPGLSPEDNVEQLRASLRLAIEGLTSLQAQTPFGLHAAAEGDHHRAAAGHGLPALVASYGLALLDRAILDALCRMTGASAAGAVRANLPGITGATAPDLEGFDLARFLSRLEPGPRLAVRHTIGLADALTAADLAPGQRLEDGLPQTLEEVIAAYGHRYFKIKVSGRPAEDTRRLLAIAAVLDQRVDAYRVTLDGNEQFENADAVADLLDRIAEEPRLEKLRASALFFEQPIVRAEALSRPVTEVAGRMPLEIDESDGDIGAFLRARALGYAGISSKSCKGFYRALVNRARVEMWNAEAGAARSFMSAEDLTTQSGLALQQDLVLAALVGAGHVERNGHHYVDGMAGAPAAEQAAYLAHHGDLYESGSGRARLAIRGGEITFSTVLRSVGLGSSVEPDWVAMVSEGHHHHHH”, the “soluble on expression in E. coli” value is recorded as “not soluble”. For “MGSDKIHHHHHHMKKKDMNKQVKIQDAVAAIILAEGPAGVSTTKVAKRVGIAQSNVYLYFKNKQALIDSVYARETNRILSTTDLDRLSDSTIDVTTRIRLYVQQVYDYSLANPDSLTIIQQIKALNGQGMTISAADADPNNIVANLLTAAIDAKVIKQLPVSLHMGVVFSTIHTHTTNISKGRYAQDQYTFGDIFQMIWDAMKQD”, the “soluble on expression in E. coli” value is listed as “not soluble”. In the case of “MYLCEEHFKEYFERKVARTIEKYKLASKDERILVAVSGGKDSAVTAYVLKKLGYKIECLHLNLGIGEYSEKSEIYAKKQCEFIGAPLNIIRVKELLGYGIGEVRTSRPTCSYCGLTKRYIMNKFAYDNGFDAVATGHNLDDEASFLMNNLLHWNTEYLAKGGPLLPGEGKFVKKIKPLYELTEREVVAYAIAVGLEYIVEECPYARGATTLDMKEVLNELEEKRPGTKFNFVRGFLRKKKLFEPEVKGKDLKECKICGMPASGEICSFCKFWKLGKPLTFKIK” it was “not soluble”. Take “SDMRQHEEYIADMALDPAKKLLLTASGDGCLGVFNIKRRRFELLSEPQSGDLTSVALMKYGKKVACGSSEGTIYLFNWNGFGATSDRFALRAESIDCIVPVTENLLCTSSTDGIIRAVNILPNRVVGTVGQHAGEPVEALALSHCGHFLASSGHDQRLKFWDMTQLRTVVVDDYRRRKKKGGPLRALSSKAWSTDDFFAGLREDEEDAKAPEEVVRESDDDDDDSD”: the “soluble on expression in E. coli” value is on record as “soluble”. In the case of “YLGGDLKYYGHTIKKANVQAIINYAVQYNILPSGIITQLYLESFWGDSTVGKRDNNWAGMSGGAQTRPSGVKVTTGMARPANEGGTYMHYASVDDFLKDYTYLLAKQGIYNVVGKKNIADYTKGLFRAGGAKYDYAAAGY”, the “soluble on expression in E. coli” value was “not soluble”. In the case of “MKPVTLYDVAEYAGVSYQTVSRVVNQASHVSAKTREKVEAAMAELNYIPNRVAQQLAGKQSLLIGVATSSLALHAPSQIVAAIKSRADQLGASVVVSMVERSGVEACKAAVHNLLAQRVSGLIINYPLDDQDAIAVEAACTNVPALFLDVSDQTPINSIIFSHEDGTRLGVEHLVALGHQQIALLAGPLSSVSARLRLAGWHKYLTRNQIQPIAEREGDWSAMSGFQQTMQMLNEGIVPTAMLVANDQMALGAMRAITESGLRVGADISVVGYDDTEDSSCYIPPLTTIKQDFRLLGQTSVDRLLQLSQGQAVKGNQLLPVSLVKRKTTLAPNTQTASPRALADSLMQLARQVSRLESGQ” it was “soluble”; in that of “MSISTIRRQVKNVAYNFSDAQVKVREATSNDPWGPSTALMSEIADLTHNPMAFTEIMSIVWKRLNDSGKNWRHVYKSLVLLDFLIKCGHEKVAQQCRENVFTIETLKDFQHVEDNRDQGLNIREKAKQITSLLSDDERLKNERTRFILTRNKFKQNNPGPVGAESRRSNRHHVTDASLDPEYEDARPSTATEEEMQLQIALALSREECEKADEMRKSDDARLQMALEESQKLQDADRLATTKQGTVSSGQLTQSALDDLLSLGVGELVSGNNDQPSSSSAWGMNDPWGAPQASASLNTNDQMFANSMSNNDPWATSTVAQPVAATAPNSDPFASWDAPAPAATTPSTMPTSSSFDLLGGDLLSPTNSLSANINTNNSTNGTRKTPENFLGENSNLVNLDNLLGSGTPSTTGGNPFLTGAAPANANPFAAQQRKSPTLNEMRAAQGQAPPIPSMAPRGTLPQANPFANPF”, “not soluble”; in that of “MGSDKIHHHHHHNKESTTECQTIDFSTLFDGQPEKIPLKEWAKSIHFVQLETNDSILIGNIRATILHKDKILVHHNNLSLFDLSGKFICNIGSKGGGPTEYSGINNAWTDDEGIHIFDIDNKIKTYNWNGKWIKTEPIPESNIKEVFPLASGNNIKAGYIQNITGNEPHKIYLFKDSTILAKIPYGKSFQKGEMTMVFYNECYPFHADGRTFFKEMFNDTIFSIDNQYQPIPRWYIELGKYKIAEDARYTLTDPRKSVFDNAATLTPIGKWDNKLFFSARANKQNYLFYYDLKEKKSNSIQISYPENSFAIPEEHSFIPKCMSDDGKYLISYEIQENDENPVIILAEK”, “not soluble”. As for “MKPLTDTDYIHALIAEGEHQQQDFKFEISDTRKIAKTLSAFANTDGGRLLIGVKDNGKIAGVRSDEEKYMIEAAAQLYCWPEVDYSMQTFHVEGRSVLVVQIDESEHKPVFAKDENGKSLAYIRIKDENILATPVHLRVWQQSGSPAGELIRYTEREQLLLDLLEENTSLSLNRYCRQAGISRRAAEHLLAKFIRFDIVEPIFENHKFYFRLKLEHHHHHH”, the “soluble on expression in E. coli” value is “soluble”. With “MSLIELWPAIDLIGSTSVRLTEGKYDSEEKMSRSAEESIAYYSQFECVNRIHIVDLIGAKAQYAREFDYIKSLRRLTTKDIEVGGGIRTKSQIMDYFAAGINYCIVGTKGIQDTDWLKEMAHTFPGRIYLSVDAYGEDIKVNGWEEDTELNLFSFVRQLSDIPLGGIIYTDIAKDGKMSGPNFELTGQLVKATTIPVIASGGIRHQQDIQRLASLNVHAAIIGKAAHQASFWEGLEEGHHHHHH”, the “soluble on expression in E. coli” value is on record as “soluble”. On to “MGSDKIHHHHHHMHLSRDVVLLITHSGDFFTIDRVAEALAKKGVQPFRLDTDKFPLQVQLTAHFDKSQSHHTIEYDNHSISTEQVQAVWMRRIWEPNLSQELAPKFQEACIRESKATLDAFWDSLKGARWVDDLERINYANNKLRQLRIASEVGFVIPQTLVTNKAQAAREFFGQVNGKMVSKLLTTLSRSMEANSSFFLYTSIVKEKDLEDAESLRYCPMVFQEQIPKQMELRVVYVNGHVFVGALNADVYAATKADWRKPGVEVGAWQHHQLPDELVRRLQAFMGKFGLLFGSLDFILTPSGEYVFLEVNPIGEWGMLEKDLDLPIANAIADILLQN”, for which the “soluble on expression in E. coli” value is on record as “not soluble”.

With “MTRTPFSRRRFLQLSGGLALAGVSLPLWAHDMADMAGGDAHPALRLPEPYKIKLAINKSAVCLAPVAVAEQQKIFSKYNLDVEFVNFGNSTDVLLEAIATGKADAGVGMALRWLKALEQGFDVKLTAGTHGGCLNLLTAKDSPFGGLESLKGQTIGVTDMAGPDKNFFAILLKRHGIDPISDVQWKVYPADLLSVALDKREIAAISGSEPFSYRLLETGKYQLIASNMTGDYANLSCCVLGVSGSLARDHKPAAAALTQAILEAHSYAAAHPESVAQSFLAHALNTSEAEVSGILHGQGHGHHAVGEAFVKELTQYAVDLQRVQVIKPGTDPHQFAESIYANVFA”, the “soluble on expression in E. coli” value is reported as “not soluble”. As for “MSLSFKDAVRKRPGMYFGDIDHNAVNHVIYELVANVVDLFLAGRATTLKVDVSECEIIVIDDGPGFPFPVEDSAHNLVERYLTHHHDKPTADDHAPHIHVLGGGLGLAAVNAVSEKLTIESSNGAWRWRQVFGKGDVLAPLESFRYDGPSGSSIKFTLDPSVFHNRLPDFFQLRKAMFELAHLYSGLIVEFDGERYVSKQGLMELAYLMWSGEGHHHHHH”, the “soluble on expression in E. coli” value was “not soluble”.

On to “MGSDKIHHHHHHMNSFLDSVCALLEQGEDVVIVTIAMQSGSTPRESGAKMAVRRDGSILGTVGGGLMEAGCMELGREMLTGRFASSAAESGPELAVIRHFDLSNEEAAKAAMVCGGRLTVVAEHIQAGRRGAEVLCAARDSLLQGKACGLETTMERLEHTAAATREACFAVTGRKTPDCGHAAPAAASATLDCDGKTCRFTEWLQPSPRMIIFGAGHVALPTAAMASMTGFAVTVLDDREEFASPQRFPQARTVVLPDFGQAFAQLTITPQCYVVIMTRGHLHDKTVLEQALKTPACYVGMIGSRRKRDALYDQLRSEGVDESSIARCHCPIGLEIGARTPEEIAVSIMAEIIACRAAGNGDGAS”, for which the “soluble on expression in E. coli” value is recorded as “not soluble”. On to “LGTLFFSLEYNFERKAFVVNIKEARGLPAMDEQSMTSDPYIKMTILPEKKHKVKTRVLRKTLDPAFDETFTFYGIPYTQIQELALHFTILSFDRFSRDDIIGEVLIPLSGIELSEGKMLMNREII”, for which the “soluble on expression in E. coli” value is reported as “soluble”. Take “MTAQPVETIKIDSEAGELGFERLGVLIKEYKPEKVVLGLPKHMNGDEGIRAEASRDYGTKLANEFGLEVAYQDERLTTAQAEKVLIDGGVRRKERKKSIDKLAAVLILQNYLDAHALKL”: the “soluble on expression in E. coli” value was “not soluble”.
